Reference: patent publication US20250179200A1 (UNIVERSITY OF CHICAGO, published 2025)

Key:
[1] = target: T1, Growth Hormone Receptor (GHR) immobilized on a high binding plate (UniProt P10912 19-264, limits assumed); assay: competition ELISA: Fab titrated on plate-bound GHR preincubated with 200 nM GH (the legend of 6A names B2036), anti-human Fab-HRP
T1 sequence (looked up): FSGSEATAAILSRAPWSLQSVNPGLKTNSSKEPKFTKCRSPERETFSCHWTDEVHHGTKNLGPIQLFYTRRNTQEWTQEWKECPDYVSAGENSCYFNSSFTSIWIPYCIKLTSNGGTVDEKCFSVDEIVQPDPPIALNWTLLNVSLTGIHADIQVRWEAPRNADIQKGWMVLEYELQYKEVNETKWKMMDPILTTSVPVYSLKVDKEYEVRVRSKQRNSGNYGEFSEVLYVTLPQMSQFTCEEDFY
Protocol: 200 nM of GHR was immobilized on a 96-well high binding plate (Geiner Bio) and blocked with 5% BSA overnight. […] The Fab binding to GHR was detected using HRP-conjugated anti-human (Fab)2 antibody (Jackson ImmunoResearch, 1:5000 dilution in PBST), and the signal was developed with TMB substrate.

[2] = target: T2, Murine GHR_Fc with 10x His-tag (murine, UniProt P16882 25-273, limits assumed); assay: SPR, GHR_Fc-10xHis on Ni-NTA chip, Fab in 2-fold dilutions from 50 nM, 1:1 fit
T2 construct: not shown: Fc domain and 10x His-tag
T2 sequence (looked up): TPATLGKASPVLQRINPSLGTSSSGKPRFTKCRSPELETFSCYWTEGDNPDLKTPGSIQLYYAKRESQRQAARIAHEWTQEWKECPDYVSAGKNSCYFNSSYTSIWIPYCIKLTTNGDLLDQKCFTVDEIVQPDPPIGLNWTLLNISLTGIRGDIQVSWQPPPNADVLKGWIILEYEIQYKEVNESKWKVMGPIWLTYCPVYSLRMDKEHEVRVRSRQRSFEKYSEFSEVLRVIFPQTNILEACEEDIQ
Protocol: (§1) Surface plasmon resonance (SPR) measurements were conducted in a MASS-1 (Bruker) instrument. The target GHR-Fc (50 nM) with a 10× His-tag was captured in a Ni-NTA sensor chip. […] Flow rate was 30 ul/min and temperature 20° C. Sensograms were corrected through double referencing and fitting was done with a 1:1 binding model using the Sierra Analyzer (Bruker). For epitope binning experiments, the first FAB was injected at saturating concentrations (200 nM), followed by injection a second FAB in equal molar mixture with the first FAB, and the response unit (RU) was recorded.
(§2) Target GHR_Fc (from different species) were immobilized via a 10× His-tag to a Ni-NTA sensor chip. […] Sensograms were corrected through double referencing and 1:1 binding model fit was done using Sierra Analyzer (Bruker). To reveal different epitopes on GHR, the epitope binning experiment was performed.

[3] = target: T3, Rat GHR_Fc with 10x His-tag (rat, UniProt P16310 19-265, limits assumed); assay: as above
T3 construct: not shown: Fc domain and 10x His-tag
T3 sequence (looked up): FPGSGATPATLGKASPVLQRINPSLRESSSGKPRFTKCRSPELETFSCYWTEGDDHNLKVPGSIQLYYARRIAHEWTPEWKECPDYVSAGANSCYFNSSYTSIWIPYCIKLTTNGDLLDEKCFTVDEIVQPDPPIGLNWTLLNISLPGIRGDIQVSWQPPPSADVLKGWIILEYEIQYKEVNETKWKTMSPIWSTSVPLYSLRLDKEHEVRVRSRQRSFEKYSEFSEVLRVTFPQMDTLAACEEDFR
Protocol: as §1, §2

[4] = target: T4, Pig GHR_Fc with 10x His-tag (pig, UniProt P19756 19-264, limits assumed); assay: as above
T4 construct: not shown: Fc domain and 10x His-tag
T4 sequence (looked up): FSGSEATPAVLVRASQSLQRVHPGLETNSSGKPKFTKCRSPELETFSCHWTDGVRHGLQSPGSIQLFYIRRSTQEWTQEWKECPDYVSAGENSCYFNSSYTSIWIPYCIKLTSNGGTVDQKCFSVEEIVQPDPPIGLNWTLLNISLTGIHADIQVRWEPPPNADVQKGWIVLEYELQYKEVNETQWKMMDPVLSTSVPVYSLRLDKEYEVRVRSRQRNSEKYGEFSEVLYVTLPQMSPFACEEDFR
Protocol: as §1, §2

[5] = target: T5, Cyno GHR_Fc with 10x His-tag (Cyno, UniProt A0A2K5WH01 19-262); assay: as above
T5 construct: not shown: Fc domain and 10x His-tag
T5 sequence: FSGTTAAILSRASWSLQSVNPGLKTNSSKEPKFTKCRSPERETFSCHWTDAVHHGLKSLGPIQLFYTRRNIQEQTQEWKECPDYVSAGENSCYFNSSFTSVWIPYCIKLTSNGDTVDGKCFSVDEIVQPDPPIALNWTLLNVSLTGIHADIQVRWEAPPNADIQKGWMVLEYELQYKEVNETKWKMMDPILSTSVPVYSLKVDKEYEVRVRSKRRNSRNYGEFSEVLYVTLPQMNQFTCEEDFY
Protocol: as §1, §2

[6] = target: T6, Rabbit GHR_Fc with 10x His-tag (rabbit, UniProt P19941 19-264, limits assumed); assay: as above
T6 construct: not shown: Fc domain and 10x His-tag
T6 sequence (looked up): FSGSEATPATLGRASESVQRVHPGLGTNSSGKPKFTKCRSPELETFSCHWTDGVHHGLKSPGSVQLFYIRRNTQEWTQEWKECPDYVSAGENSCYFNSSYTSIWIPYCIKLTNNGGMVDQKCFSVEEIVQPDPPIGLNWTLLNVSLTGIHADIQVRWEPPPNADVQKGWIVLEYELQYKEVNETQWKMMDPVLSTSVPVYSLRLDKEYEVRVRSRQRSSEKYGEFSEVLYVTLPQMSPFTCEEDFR
Protocol: as §1, §2

[7] = target: T7, Human GHR-Fc-10x His (extracellular region of human growth hormone receptor fused to human Fc) (human, UniProt P10912 50-256); assay: as above
T7 construct: Captured by its 10x His-tag on a Ni-NTA sensor chip for SPR; not shown: human Fc domain of vector pAB1200 with its linker; 10x His-tag replacing the AviTag
T7 sequence (looked up): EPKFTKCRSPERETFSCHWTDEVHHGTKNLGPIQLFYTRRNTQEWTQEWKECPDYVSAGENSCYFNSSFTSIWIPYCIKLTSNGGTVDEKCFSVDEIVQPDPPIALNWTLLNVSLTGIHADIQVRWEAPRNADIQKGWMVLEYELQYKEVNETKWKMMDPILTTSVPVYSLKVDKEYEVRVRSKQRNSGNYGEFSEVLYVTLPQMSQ
Protocol: as §1, §2

B1: GHR3 Fab (Fab, V domains shown)
VH: EVQLVESGGGLVQPGGSLRLSCAASGFNVSYYSIHWVRQAPGKGLEWVAYISPSYGSTSYADSVKGRFTISADTSKNTAYLQMNSLRAEDTAVYYCARGYWGGGYWPYHAFDYWGQGTLVTVSS
VL: DIQMTQSPSSLSASVGDRVTITCRASQSVSSAVAWYQQKPGKAPKLLIYSASSLYSGVPSRFSGSRSGTDFTLTISSLQPEDFATYYCQQYYTSLLTFGQGTKVEIKR
EC50 [1]: 26 nM

B2: GHR_TS10 Fab (Fab, V domains shown)
VH: EVQLVESGGGLVQPGGSLRLSCAASGFNFSSSYIHWVRQAPGKGLEWVAYISPSSGYTSYADSVKGRFTISADTSKNTAYLQMNSLRAEDTAVYYCARQYYGGWYGFGMDYWGQGTLVTVSS
VL: DIQMTQSPSSLSASVGDRVTITCRASQSVSSAVAWYQQKPGKAPKLLIYSASSLYSGVPSRFSGSRSGTDFTLTISSLQPEDFATYYCQQWHSYLITFGQGTKVEIKR
EC50 [1]: 3.5 nM

B3: GHR_TS40 Fab (Fab, V domains shown)
VH: EVQLVESGGGLVQPGGSLRLSCAASGFNVSYYYIHWVRQAPGKGLEWVASIYPSSGYTSYADSVKGRFTISADTSKNTAYLQMNSLRAEDTAVYYCARYYWPASYWSGYSALDYWGQGTLVTVSS
VL: DIQMTQSPSSLSASVGDRVTITCRASQSVSSAVAWYQQKPGKAPKLLIYSASSLYSGVPSRFSGSRSGTDFTLTISSLQPEDFATYYCQQYPWGLITFGQGTKVEIKR
EC50 [1]: 132 nM

B4: GHR_TS23 Fab (Fab, V domains shown)
VH: EVQLVESGGGLVQPGGSLRLSCAASGFNFYYSSIHWVRQAPGKGLEWVASIYSYSGSTSYADSVKGRFTISADTSKNTAYLQMNSLRAEDTAVYYCARQYWYYGGYFYYGIDYWGQGTLVTVSS
VL: DIQMTQSPSSLSASVGDRVTITCRASQSVSSAVAWYQQKPGKAPKLLIYSASSLYSGVPSRFSGSRSGTDFTLTISSLQPEDFATYYCQQYWSTLITFGQGTKVEIKR
EC50 [1]: 3.5 nM

B5: GHR_TS23 Fab (Fab, V domains shown)
VH: EVQLVESGGGLVQPGGSLRLSCAASGFNFYYSSIHWVRQAPGKGLEWVASIYSYSGSTSYADSVKGRFTISADTSKNTAYLQMNSLRAEDTAVYYCARQYWYYGGYFYYGIDYWGQGTLVTVSS
VL: DIQMTQSPSSLSASVGDRVTITCRASQSVSSAVAWYQQKPGKAPKLLIYSASSLYSGVPSRFSGSRSGTDFTLTISSLQPEDFATYYCQQYWSTLITFGQGTKVEIKR
notes: Fab from the cross-species phage display selection
Kd [2]: 7.8 nM | koff [2]: 0.0051 s⁻¹ | kon [2]: 660000 M⁻¹ s⁻¹ | Kd [3]: 8.2 nM | koff [3]: 0.0031 s⁻¹ | kon [3]: 370000 M⁻¹ s⁻¹ | Kd [4]: 1.8 nM | koff [4]: 0.0012 s⁻¹ | kon [4]: 670000 M⁻¹ s⁻¹ | Kd [5]: 1.3 nM | koff [5]: 0.00038 s⁻¹ | kon [5]: 300000 M⁻¹ s⁻¹ | Kd [6]: 2.5 nM | koff [6]: 0.0014 s⁻¹ | kon [6]: 560000 M⁻¹ s⁻¹ | Kd [7]: 0.2 nM | koff [7]: 0.00017 s⁻¹ | kon [7]: 830000 M⁻¹ s⁻¹
